B1: (Tn3)4 (designed binder)
chain: GAIEVKDVTDTTALITWAKPWVDPPPLWGCELTYGIKDVPGDRTTIDLQQKHTAYSIGNLKPDTEYEVSLICFDPYGMRSKPAKETFTTGGGGSGGGGSGGGGSGAIEVKDVTDTTALITWAKPWVDPPPLWGCELTYGIKDVPGDRTTIDLQQKHTAYSIGNLKPDTEYEVSLICFDPYGMRSKPAKETFTTGGGGSGGGGSGGGGSGAIEVKDVTDTTALITWAKPWVDPPPLWGCELTYGIKDVPGDRTTIDLQQKHTAYSIGNLKPDTEYEVSLICFDPYGMRSKPAKETFTTGGGGSGGGGSGGGGSGAIEVKDVTDTTALITWAKPWVDPPPLWGCELTYGIKDVPGDRTTIDLQQKHTAYSIGNLKPDTEYEVSLICFDPYGMRSKPAKETFTTGGGGSGGGGSGGGGS
B2: (Tn3)6 (designed binder)
chain: GAIEVKDVTDTTALITWAKPWVDPPPLWGCELTYGIKDVPGDRTTIDLQQKHTAYSIGNLKPDTEYEVSLICFDPYGMRSKPAKETFTTGGGGSGGGGSGGGGSGAIEVKDVTDTTALITWAKPWVDPPPLWGCELTYGIKDVPGDRTTIDLQQKHTAYSIGNLKPDTEYEVSLICFDPYGMRSKPAKETFTTGGGGSGGGGSGGGGSGAIEVKDVTDTTALITWAKPWVDPPPLWGCELTYGIKDVPGDRTTIDLQQKHTAYSIGNLKPDTEYEVSLICFDPYGMRSKPAKETFTTGGGGSGGGGSGGGGSGAIEVKDVTDTTALITWAKPWVDPPPLWGCELTYGIKDVPGDRTTIDLQQKHTAYSIGNLKPDTEYEVSLICFDPYGMRSKPAKETFTTGGGGSGGGGSGGGGSGAIEVKDVTDTTALITWAKPWVDPPPLWGCELTYGIKDVPGDRTTIDLQQKHTAYSIGNLKPDTEYEVSLICFDPYGMRSKPAKETFTTGGGGSGGGGSGGGGSGAIEVKDVTDTTALITWAKPWVDPPPLWGCELTYGIKDVPGDRTTIDLQQKHTAYSIGNLKPDTEYEVSLICFDPYGMRSKPAKETFTTGGGGSGGGGSGGGGS
B3: ELPa-(Tn3)4 (designed binder)
chain: VGVPGVGVPGVGVPGVGVPGVGVPGVGVPGVGVPGVGVPGVGVPGVGVPGVGVPGVGVPGVGVPGVGVPGVGVPGVGVPGVGVPGVGVPGVGVPGVGVPGVGVPGVGVPGVGVPGVGVPGVGVPGVGVPGVGVPGVGVPGVGVPGVGVPGVGVPGVGVPGVGVPGVGVPGVGVPGVGVPGVGVPGVGVPGVGVPGVGVPGVGVPGVGVPGVGVPGVGVPGVGVPGVGVPGVGVPGVGVPGVGVPGVGVPGVGVPGVGVPGVGVPGVGVPGVGVPGVGVPGVGVPGVGVPGVGVPGVGVPGVGVPGVGVPGVGVPGVGVPGVGVPGVGVPGVGVPGVGVPGVGVPGVGVPGVGVPGVGVPGVGVPGVGVPGVGVPGVGVPGVGVPGVGVPGVGVPGVGVPGVGVPGVGVPGVGVPGVGVPGVGVPGVGVPGVGVPGVGVPGVGVPGVGVPGVGVPGVGVPGVGVPGVGVPGVGVPGVGVPGVGVPGVGVPGVGVPGVGVPGVGVPGVGVPGVGVPGVGVPGVGVPGVGVPGVGVPGVGVPGVGVPGVGVPGVGVPGVGVPGVGVPGVGVPGVGVPGVGVPGVGVPGVGVPGVGVPGVGVPGGAIEVKDVTDTTALITWAKPWVDPPPLWGCELTYGIKDVPGDRTTIDLQQKHTAYSIGNLKPDTEYEVSLICFDPYGMRSKPAKETFTTGGGGSGGGGSGGGGSGAIEVKDVTDTTALITWAKPWVDPPPLWGCELTYGIKDVPGDRTTIDLQQKHTAYSIGNLKPDTEYEVSLICFDPYGMRSKPAKETFTTGGGGSGGGGSGGGGSGAIEVKDVTDTTALITWAKPWVDPPPLWGCELTYGIKDVPGDRTTIDLQQKHTAYSIGNLKPDTEYEVSLICFDPYGMRSKPAKETFTTGGGGSGGGGSGGGGSGAIEVKDVTDTTALITWAKPWVDPPPLWGCELTYGIKDVPGDRTTIDLQQKHTAYSIGNLKPDTEYEVSLICFDPYGMRSKPAKETFTTGGGGSGGGGSGGGGS
B4: ELPa-(Tn3)6 (designed binder)
chain: VGVPGVGVPGVGVPGVGVPGVGVPGVGVPGVGVPGVGVPGVGVPGVGVPGVGVPGVGVPGVGVPGVGVPGVGVPGVGVPGVGVPGVGVPGVGVPGVGVPGVGVPGVGVPGVGVPGVGVPGVGVPGVGVPGVGVPGVGVPGVGVPGVGVPGVGVPGVGVPGVGVPGVGVPGVGVPGVGVPGVGVPGVGVPGVGVPGVGVPGVGVPGVGVPGVGVPGVGVPGVGVPGVGVPGVGVPGVGVPGVGVPGVGVPGVGVPGVGVPGVGVPGVGVPGVGVPGVGVPGVGVPGVGVPGVGVPGVGVPGVGVPGVGVPGVGVPGVGVPGVGVPGVGVPGVGVPGVGVPGVGVPGVGVPGVGVPGVGVPGVGVPGVGVPGVGVPGVGVPGVGVPGVGVPGVGVPGVGVPGVGVPGVGVPGVGVPGVGVPGVGVPGVGVPGVGVPGVGVPGVGVPGVGVPGVGVPGVGVPGVGVPGVGVPGVGVPGVGVPGVGVPGVGVPGVGVPGVGVPGVGVPGVGVPGVGVPGVGVPGVGVPGVGVPGVGVPGVGVPGVGVPGVGVPGVGVPGVGVPGVGVPGVGVPGVGVPGVGVPGVGVPGVGVPGVGVPGVGVPGAIEVKDVTDTTALITWAKPWVDPPPLWGCELTYGIKDVPGDRTTIDLQQKHTAYSIGNLKPDTEYEVSLICFDPYGMRSKPAKETFTTGGGGSGGGGSGGGGSGAIEVKDVTDTTALITWAKPWVDPPPLWGCELTYGIKDVPGDRTTIDLQQKHTAYSIGNLKPDTEYEVSLICFDPYGMRSKPAKETFTTGGGGSGGGGSGGGGSGAIEVKDVTDTTALITWAKPWVDPPPLWGCELTYGIKDVPGDRTTIDLQQKHTAYSIGNLKPDTEYEVSLICFDPYGMRSKPAKETFTTGGGGSGGGGSGGGGSGAIEVKDVTDTTALITWAKPWVDPPPLWGCELTYGIKDVPGDRTTIDLQQKHTAYSIGNLKPDTEYEVSLICFDPYGMRSKPAKETFTTGGGGSGGGGSGGGGSGAIEVKDVTDTTALITWAKPWVDPPPLWGCELTYGIKDVPGDRTTIDLQQKHTAYSIGNLKPDTEYEVSLICFDPYGMRSKPAKETFTTGGGGSGGGGSGGGGSGAIEVKDVTDTTALITWAKPWVDPPPLWGCELTYGIKDVPGDRTTIDLQQKHTAYSIGNLKPDTEYEVSLICFDPYGMRSKPAKETFTTGGGGSGGGGSGGGGS

Biological target: TNF-related apoptosis-inducing ligand receptor 2 (TRAILR-2) (human, UniProt O14763 56-440)
Test: cell-based or functional assay

Binder	EC50, cell viability assay on Colo205 cells (concentration required to kill 50% of the cells)
B1	0.04 nM
B2	0.0016 nM
B3	0.08 nM
B4	0.00078 nM
